This is an account of results in patent US20030049625, “Rapid and sensitive proximity-based assay for the detection and quantification of DNA binding proteins” (Saint Louis University, published 2003).

In data set [1] the target is T1, Trp repressor (TrpR) (UniProt P0A881 P0A881:2-108). Briefly: FRET; two-color assay, TrpR only, no change in coumarin signal; 15 C.
Data set [2] has as its target T2, CAP (cAMP receptor protein) (Escherichia coli, UniProt P0ACJ8 P0ACJ8:2-210). The experiment in a line: competition; no effect up to 194.2 nM; 200 uM cAMP, 50 mM NaCl. Particulars: chain copies: 2. From the text: (§1) The fluorescence donor (fluorescein) and the fluorescence acceptor (dabcyl) were introduced into DNA fragments using commercially available dT-fluorescein and dT-dabcyl (Glen Research, Sterling, Va.), wherein dT stands fordeoxythymidine. The oligonucleotides were purified using reverse phase chromatography on a RPC column (Pharmacia) as previously described (Heyduk, E., and Heyduk, T. Anal. Biochem. 248, 216-227, 1997). The fractions containing the oligonucleotides were dried in a vacuum centrifuge concentrator and subsequently dissolved in 50 μl of water. The concentration of the stock solutions of oligonucleotides was determined by recording the UV-VIS absorption spectrum of a small aliquot of the stock solution diluted to 400 μl. The CAP1 oligonucleotide (SEQ ID NO:1) was hybridized with CAP4 oligonucleotide (SEQ ID NO:4) to generate the CAP1/CAP4 duplex and CAP2 oligonucleotide (SEQ ID NO:2) was hybridized with CAP3 oligonucleotide (SEQ ID NO:3) to generate the CAP2/CAP3 duplex. […] All subsequent fluorescence measurements were performed at 25° C. in 50-mM Tris/HCl (pH 8.0), 100 mM NaCl (or 50 mM NaCl where indicated), 1 mM EDTA, 0.1 mg/ml BSA, and 200 μM cAMP in 200 μl quartz cuvette using Aminco-Bowman Series 2 spectrofluorometer. The excitation wavelength was at 490 nm and the emission was recorded from 500 to 650 nm. […]

In data set [3] the target is T1, Trp repressor (TrpR). The experiment in a line: FRET; specificity control.
The target of another data set is Lac repressor (LacR) (UniProt P03023 P03023:1-360). Briefly: FRET; 0-200 nM LacR, saturation ~150 nM, 50 nM DNA, 25 C; specificity confirmed with 5 mM IPTG. Particulars: chain copies: 4; label: dT-fluorescein (LAC2), dT-dabcyl (LAC4); two half-site duplexes with short complementary overhangs. The procedure: The oligonucleotides were purified using reverse phase chromatography on RPC column (Amersham Pharmacia Biotech, Piscataway, N.J.) as previously described (Heyduk, E., and Heyduk, T. Anal. Biochem. 248, 216-227, 1997). The fractions containing the oligonucleotides were dried in Vacuum centrifuge concentrator and were dissolved in 50 μl of water. The concentration of the stock solutions of oligonucleotides was determined by recording the UV-VIS absorption spectrum of a small aliquot of the stock solution diluted to 400 μl. The LAC1 oligonucleotide (SEQ ID NO:12) was hybridized with the LAC4 oligonucleotide (SEQ ID NO:15) to generate the LAC1/LAC4 construct and the LAC2 oligonucleotide (SEQ ID NO:13) was hybridized with the LAC3 oligonucleotide (SEQ ID NO:14) to generate the LAC2/LAC3 construct. […] All subsequent fluorescence measurements were performed at 25° C. in 50 mM Tris/HCl (pH 8.0), 100 mM NaCl, 1 mM EDTA, and 0.1 mg/ml BSA. […]
Lac repressor (LacR), sequence (P03023 whole entry, one chain of several): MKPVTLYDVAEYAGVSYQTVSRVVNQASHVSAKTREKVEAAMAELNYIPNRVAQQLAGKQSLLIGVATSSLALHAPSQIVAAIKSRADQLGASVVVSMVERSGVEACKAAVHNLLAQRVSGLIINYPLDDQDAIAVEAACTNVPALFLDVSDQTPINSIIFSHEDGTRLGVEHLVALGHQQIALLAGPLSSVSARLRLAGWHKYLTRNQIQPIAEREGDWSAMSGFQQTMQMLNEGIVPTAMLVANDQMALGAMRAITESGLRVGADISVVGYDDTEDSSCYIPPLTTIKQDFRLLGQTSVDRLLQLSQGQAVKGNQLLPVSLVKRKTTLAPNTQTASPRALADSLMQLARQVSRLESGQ
The fluorescence spectra of 50 nM of LAC1/LAC4 plus LAC2/LAC3 were recorded in the absence of LacR (FIG. 14, curve 1) and in the presence of varying amounts of LacR in a range from 0-200 nM (FIG. 14, curves 2-7). Fluorescence signal quenching was proportional to the amount of LacR added to the reaction mixture, with saturation occurring at approximately 150 nM of LacR (FIG. 14, inset). […]

Data set [4] concerns the target T2, CAP (cAMP receptor protein). The experiment in a line: competition; unlabeled duplex blocks CAP detection; 200 uM cAMP, 50 mM NaCl. The settings on record: chain copies: 2.
Source text: as §1

The target in data set [5] is T1, Trp repressor (TrpR). The experiment in a line: FRET; 400 nM TrpR, no change.
For data set [6], the target named is T2, CAP (cAMP receptor protein). Briefly: FRET; two-color assay, CAP only, no change in fluorescein signal; 200 uM cAMP. Particulars: chain copies: 2; label: dT-fluorescein (TRP2), dT-dabcyl (TRP4); two half-site duplexes with short complementary overhangs. The procedure: Nucleic acid constructs specific for each of the proteins to be detected may be labeled with probes that emit light at different wavelengths. In this example, the reaction mixture contained nucleic acid constructs labeled with 7-diethylaminocoumarin-3-carboxylic acid for detecting CAP protein (described in EXAMPLE 2) and nucleic acid constructs labeled with fluorescein for detecting TrpR protein (described in EXAMPLE 6). Specifically, 100 nM CAP5/CAP3, 120 nM CAP1/CAP4, 100 nM TRP2/TRP3, and 120 nM TRP1/TRP4 duplexes were present in the reaction mixture.
All measurements were performed at 15° C. in 10 mM potassium phosphate (pH 7.6), 50 mM NaCl, 0.1 mM EDTA, 4 mM tryptophan, 200 μM cAMP, 10% glycerol, 0.01% sodium azide and 1.0 mg/ml BSA. The fluorescence spectra with the excitation at 433 nm (excitation of 7-diethylaminocoumarin-3-carboxylic acid, FIG. 17A) and with the excitation at 490 nm (excitation of fluorescein, FIG. 17B) were recorded in the absence of the proteins (curves 1), in the presence of CAP only (curves 2), in the presence of TrpR only (curves 3), and in the presence of both CAP and TrpR (curves 4). In the presence of only CAP there was no change in the fluorescein signal (FIG. 17B, curve 2) whereas about 60% quenching of the 7-diethylaminocoumarin-3-carboxylic acid signal was observed (FIG. 17A, curve 2). […]

For data set [7] the target is unchanged. The experiment in a line: ratiometric FRET; 0-150 nM CAP, 200 uM cAMP, 25 C. Particulars: chain copies: 2; label: 7-diethylaminocoumarin-3-carboxylic acid on amino-dT (CAP6), dT-fluorescein (CAP2); two half-site duplexes with short complementary overhangs. The procedure:
In a second experiment (FIG. 9), the pair of CAP6/CAP1 and CAP2/CAP3 nucleic acid duplexes were tested for the performance in CAP assay. In this assay format, the 7-diethylaminocoumarin-3-carboxylic acid present in the CAP6/CAP1 duplex functioned as a fluorescence donor and the fluorescein present in the CAP2/CAP3 duplex functioned as an acceptor. In this case, both the donor as well as the acceptor are fluorescent. The experiment was performed at 25° C. in 50 mM Tris/HCl (pH 8.0), 100 mM NaCl, 1 mM EDTA, 0.1 mg/ml BSA, and 200 μM cAMP. […] The shoulder observed at about 520 nm is due to the residual emission of fluorescein, which is also to a small extent excited at 433 nm. Upon addition of varying amounts of CAP in a range from 0 to 150 nM (curves 2 -9), a pronounced quenching of the peak at 475 nm and a pronounced enhancement of the peak at 520 nm is observed. Recall that the emission maximum of fluorescein is 520 nm. […] Also, as shown in the inset of FIG. 9, the ratio between the fluorescence intensities at 520 nm and 475 nm may be used to determine the concentration of DNA binding proteins. This ratiometric mode of signal detection could be particularly useful since it would be less prone to trivial errors (such as pipetting errors, general quenching by some unrelated compounds present in the assayed sample).

The target of another data set is p53 (Homo sapiens, UniProt P04637 P04637:1-393). Briefly: FRET; 0-130 nM p53, quenching proportional to p53, 50 mM NaCl, 100 nM nonspecific 30-bp DNA, 25 C. The settings on record: tags: full-length, expressed in bacteria (gift of K. S. Matthews); chain copies: 4; label: dT-fluorescein (P2), dT-dabcyl (P4); two half-site duplexes with short complementary overhangs. The procedure: The oligonucleotides were purified using reverse phase chromatography on a RPC column as described previously (Heyduk, E., and Heyduk, supra). The fractions containing the oligonucleotides were dried in Vacuum centrifuge concentrator and were dissolved in 50 μl of water. The concentrations of the stock solutions of oligonucleotides were determined by recording the UV-VIS absorption spectrum of a small aliquot of the stock solution diluted to 400 μl. The P1 oligonucleotide (SEQ ID NO:20) was hybridized with the P4 oligonudeotide (SEQ ID NO:23) to generate the P1/P4 duplex construct and the P2 oligonucleotide (SEQ ID NO:21) was hybridized with the P3 (SEQ ID NO:22) oligonucleotide to generate the P2/P3 duplex construct. For the hybridization, the appropriate oligonucleotides were mixed at 10 μM concentration in 100 μl of 50 mM Tris/HCl (pH 8.0), 100 mM NaCl, 1 mM EDTA, heated for 1 min at 95° C. and then cooled to 25° C. for 1 hr. All subsequent fluorescence measurements were performed at 25° C. in 50-mM potassium phosphate (pH 7.5), 50 mM NaCl, and 0.5 mg/ml BSA containing also 100 nM of a nonspecific 30-bp DNA duplex. The DNA duplexes obtained upon hybridization are illustrated in FIG. 18. The duplexes contain a repeat of 10 bp PuPuPuC(A/T)(T/A)GPyPyPy (SEQ ID NO:24) motif split between the two DNA duplexes. […]
p53, sequence (P04637 whole entry, one chain of several): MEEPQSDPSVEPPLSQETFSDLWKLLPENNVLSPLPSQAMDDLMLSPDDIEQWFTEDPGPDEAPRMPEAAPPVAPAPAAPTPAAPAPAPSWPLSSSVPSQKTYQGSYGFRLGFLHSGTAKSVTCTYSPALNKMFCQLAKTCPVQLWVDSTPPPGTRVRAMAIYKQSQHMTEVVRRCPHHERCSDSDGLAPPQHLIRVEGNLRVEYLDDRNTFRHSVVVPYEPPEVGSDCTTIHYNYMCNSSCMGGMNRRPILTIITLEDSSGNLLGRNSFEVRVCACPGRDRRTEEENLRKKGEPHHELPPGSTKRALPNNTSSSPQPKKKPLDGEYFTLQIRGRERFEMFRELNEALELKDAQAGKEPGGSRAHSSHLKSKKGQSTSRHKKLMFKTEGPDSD

T2 sequence (P0ACJ8 2-210, one chain of several): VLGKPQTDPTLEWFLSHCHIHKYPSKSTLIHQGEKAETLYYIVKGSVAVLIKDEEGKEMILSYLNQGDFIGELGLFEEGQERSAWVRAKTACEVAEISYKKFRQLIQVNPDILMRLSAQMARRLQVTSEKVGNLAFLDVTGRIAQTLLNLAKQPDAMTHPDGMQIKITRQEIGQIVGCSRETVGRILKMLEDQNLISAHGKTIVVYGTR

B1: CAP5/CAP3 + CAP4/CAP1 (dsDNA)
DNA 1: AGTAGATCACATTTTAGGCACC
DNA 2: GGTGCCTAAAATGTGA
DNA 3: TCTACTTCACATTTATTGCGTT
DNA 4: AACGCAATAAATGTGA
modifications: [strand 1: T3 (N, modified T); strand 3: T3 (N, modified T)]
For the molecule B1, the binding result with Trp repressor (TrpR) [1] is “no binding”.

B2: NSP1 duplex (dsDNA)
DNA 1: GCATCGGTCACTGCAGTCTCGACAGCTACG
DNA 2: CGTAGCTGTCGAGACTGCAGTGACCGATGC
For B2, the binding result in [2] is given as “no binding”.

B3: LAC1/LAC4 + LAC2/LAC3 (dsDNA)
DNA 1: GGTGTGTGGAATTGTGA
DNA 2: ATACGCTCACAATTCCACACACC
DNA 3: GCGTATAACAATTTCACACAGG
DNA 4: CTTGTGTGAAATTGTT
modifications: [strand 2: T2 (N, modified T); strand 3: T4 (N, modified T)]
As to B3, the values for the binding result with Trp repressor (TrpR) [3] and with Lac repressor (LacR) were “no binding” and “binds”, respectively.

B4: SP1 duplex (dsDNA)
DNA 1: CCTAAAATGTGATCTAGATCACATTTATTG
DNA 2: CAATAAATGTGATCTAGATCACATTTTAGG
Turning to B4, in data set [4], the binding result is listed as “binds”.

B5: CAP1/CAP4 + CAP2/CAP3 (dsDNA)
DNA 1: AACGCAATAAATGTGA
DNA 2: TCTACTTCACATTTATTGCGTT
DNA 3: AGTAGATCACATTTTAGGCACC
DNA 4: GGTGCCTAAAATGTGA
modifications: [strand 2: T3 (N, modified T); strand 3: T3 (N, modified T)]
For B5, the binding result with Trp repressor (TrpR) [5] was “no binding”.

B6: TRP1/TRP4 + TRP2/TRP3 (dsDNA)
DNA 1: GAGATCTATCGAACTA
DNA 2: GTTTACTAGTTCGATAGATCTC
DNA 3: GTAAACTAGTACGAAACTAGAG
DNA 4: CTCTAGTTTCGTACTA
modifications: [strand 2: T2 (N, modified T); strand 3: T2 (N, modified T)]
Regarding B6, the binding result in data set [6] is reported as “no binding”.

B7: CAP6/CAP1 + CAP2/CAP3 (dsDNA)
DNA 1: TCTACTTCACATTTATTGCGTT
DNA 2: AACGCAATAAATGTGA
DNA 3: AGTAGATCACATTTTAGGCACC
DNA 4: GGTGCCTAAAATGTGA
modifications: [strand 1: T3 (N, modified T); strand 3: T3 (N, modified T)]
For B7, in data set [7], the binding result is listed as “binds”.

B8: P1/P4 + P2/P3 (dsDNA)
DNA 1: GCATCGGTCACAGACA
DNA 2: TGTCTAGGCATGTCTGTGACCGATGC
DNA 3: TGCCTAGACATGCCTTGCAGTCTCGA
DNA 4: TCGAGACTGCAAGGCA
modifications: [strand 2: T5 (N, modified T); strand 3: T5 (N, modified T)]
On to B8, for which the binding result with p53 is listed as “binds”.
